How the values were obtained:
human glucagon receptor [1] = biological target: T1, human glucagon receptor (human, UniProt P47871 26-477); assay: cell-based or functional assay
human glucagon receptor [2] = biological target: T1, human glucagon receptor; assay: FACS on CHO-DHFR-hGCGR cells, antibody at 500, 50 and 5 nM; control is blank CHO-DHFR- cells
Description: PBS containing 10 mM EDTA was used to detach the CHO-DHFR-hGCGR cells and 10⁵ cells/tube was dispensed into 1.5 mL EP tubes, and the supernatant was removed after centrifugation, The negative control sample was resuspended with a loading buffer (PBS, 2% FBS). For the positive control, 200 μL hGCGR antibody solution of specific concentrations was added to the cells and incubated at room temperature; after incubation, the cells were then centrifuged at 1500 rpm to remove the supernatant, washed with a FACS loading buffer and centrifuged again. The cells were resuspended with addition (200 μL/well) of a FITC labeled goat anti-mouse fluorescent antibody at 1:50 dilution (BD Pharmingen) and incubated at room temperature for 30 min in the dark. The supernatant was removed after centrifugation, and cells were washed with FACS loading buffer, centrifuged again, and resuspended with the loading buffer for FACS analysis.

Row | IC50, antagonism of glucagon-activated hGCGR signaling, direct cAMP assay on CHO-DHFR- cells expressing human GCGR (human glucagon receptor [1]) | binding result (human glucagon receptor [2]) | Binder
1 | 0.139 µM |  | hGCGR antibody L7H7 (antibody, V domains shown) VH: QVQLVQSGAEVKKPGASVKVSCKASGYTFTEYTMHWVRQAPGQRLEWIGGINPDNGGPSYSQKFKGRVTITRDTSASTAYMELSSLRSEDTAVYYCAEETHDYDKFAYWGQGTLVTVSS VL: not shown
2 |  | binds | mouse ascites antibody L4H4 (antibody, V domains shown, Murine antibody produced from mouse ascites; also called GCGR antibody L4H4) VH: DVQLQESGPGLVKPSQSLSLTCTVTGYSITSDYAWTWIRQFPGNKLEWMGYISFTGTTSYTPSLKSRISITRDTSKNQFFLYLNSVTAEDTATYYCVRSVIFTIDSWGQGTSVTVSS VL: DIQMTQSPASLSASVGETVTITCRASGNIHNYLTWFQQRRGKSPQLLVYNAKALADGVPSRFSGSGSGTEYSLKINSLQPEDFGDYYCLHFWSSPLTFGAGTKLELKR

From patent publication US20210122827A1 (GMAX BIOPHARM, published 2021)
